T1: YefM (antitoxin; in heterohexamer, YoeB2-YefM4);YoeB (toxin; in heterohexamer, YoeB2-YefM4) (Staphylococcus aureus …, UniProt Q2G285;Q2G286 1-83;1-88, |)
T1 sequence 1: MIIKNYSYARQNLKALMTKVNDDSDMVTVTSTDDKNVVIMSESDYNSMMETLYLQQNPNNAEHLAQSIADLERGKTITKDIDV
T1 sequence 2: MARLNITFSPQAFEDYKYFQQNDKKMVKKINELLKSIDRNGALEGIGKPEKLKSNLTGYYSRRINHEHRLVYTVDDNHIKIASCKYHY

T2: YefM antitoxin without tag (pET22b-yefM), as in the heterohexamer (S. aureus (NCTC8325 strain), UniProt A0A0B4ND47 1-83)
T2 sequence (looked up): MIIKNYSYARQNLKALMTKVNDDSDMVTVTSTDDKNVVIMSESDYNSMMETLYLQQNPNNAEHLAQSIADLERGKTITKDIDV


Tests used:
[1] = target: T1, YefM (antitoxin; in heterohexamer, …); assay: ITC
[2] = target: T2, YefM antitoxin without tag …; assay: SEC-MALS
SEC-MALS = target: the molecule itself; assay: SEC-MALS

Binder	binding result [1]	further results
promoter core mutant (ATTGTACA to ATTTTAAA) (dsDNA) DNA 1: TTATTTTAAAGATATTTTTAAAATTG DNA 2: CAATTTTAAAAATATCTTTAAAATAA	no binding	
promoter flank mutant (ATTGTACA to AGCGTACG) (dsDNA) DNA 1: TTAGCGTACGGATATGCGTACGCTTG DNA 2: CAAGCGTACGCATATCCGTACGCTAA	no binding	
YoeB toxin with N-terminal 6xHis tag (pET28a-yoeB) (natural protein) MARLNITFSPQAFEDYKYFQQNNKKMVKKINELLKSIDRNGALEGIGKPEKLKSNLTGYYSRRINHEHRLVYTVDDNHIKIASCKYHY		stoichiometry N [2]: 0.5 YoeB per YefM
YefM antitoxin, expressed alone (natural protein, S. aureus (NCTC8325 strain), UniProt A0A0B4ND47 1-83, looked up) MIIKNYSYARQNLKALMTKVNDDSDMVTVTSTDDKNVVIMSESDYNSMMETLYLQQNPNNAEHLAQSIADLERGKTITKDIDV		stoichiometry N (SEC-MALS): 2

From article PMC7544224 (Nucleic Acids Research, 2020)
